According to IntAct's records for PubMed 31515488:

B1: Probable thioesterase PNKD (Homo sapiens), Q8N490 (parent)
chain: MAAVVAATALKGRGARNARVLRGILAGATANKASHNRTRALQSHSSPEGKEEPEPLSPELEYIPRKRGKNPMKAVGLAWYSLYTRTWLGYLFYRQQLRRARNRYPKGHSKTQPRLFNGVKVLPIPVLSDNYSYLIIDTQAQLAVAVDPSDPRAVQASIEKEGVTLVAILCTHKHWDHSGGNRDLSRRHRDCRVYGSPQDGIPYLTHPLCHQDVVSVGRLQIRALATPGHTQGHLVYLLDGEPYKGPSCLFSGDLLFLSGCGRTFEGNAETMLSSLDTVLGLGDDTLLWPGHEYAEENLGFAGVVEPENLARERKMQWVQRQRLERKGTCPSTLGEERSYNPFLRTHCLALQEALGPGPGPTGDDDYSRAQLLEELRRLKDMHKSK
partner: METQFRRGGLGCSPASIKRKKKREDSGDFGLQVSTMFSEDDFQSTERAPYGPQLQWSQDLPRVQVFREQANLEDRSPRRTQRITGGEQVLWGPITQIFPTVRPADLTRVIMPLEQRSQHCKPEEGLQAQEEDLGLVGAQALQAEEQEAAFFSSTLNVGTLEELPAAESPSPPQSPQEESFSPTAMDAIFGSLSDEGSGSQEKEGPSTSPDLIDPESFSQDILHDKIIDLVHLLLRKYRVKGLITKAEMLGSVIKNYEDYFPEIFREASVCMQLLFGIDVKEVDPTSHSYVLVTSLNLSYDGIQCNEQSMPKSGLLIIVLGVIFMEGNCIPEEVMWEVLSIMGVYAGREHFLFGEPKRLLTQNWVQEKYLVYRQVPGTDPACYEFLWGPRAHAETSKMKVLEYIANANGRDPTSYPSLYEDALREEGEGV
B2: SR-related and CTD-associated factor 8 (Homo sapiens), Q9UPN6 (parent)
chain: MEAVKTFNSELYSLNDYKPPISKAKMTQITKAAIKAIKFYKHVVQSVEKFIQKCKPEYKVPGLYVIDSIVRQSRHQFGQEKDVFAPRFSNNIISTFQNLYRCPGDDKSKIVRVLNLWQKNNVFKSEIIQPLLDMAAGIPPPVVTPVLASTTTAMSNTPGTPVTPVTPANVVQGLPDPWVSQITNTDTLAAVAQILQSPQGQQLQQLIQTLQIQQQKPQPSILQALDAGLVVQLQALTAQLTAAAAAANTLTPLEQGVSFNKKLMDRFDFGEDSEHSEEPKKEIPASQLSHVSESVNNSIFHQIAEQLQQQNLEHLRQQLLEQQQPQKATPQDSQEGTFGSEHSASPSQGSSQQHFLEPEVNLDDSIDIQQQDMDIDEGQDGVEEEVFEQEAKKVAVRSRSRTHSRSRSRSPRKRRSRSRSGSRKRKHRKRSRSRSRERKRKSSRSYSSERRAREREKERQKKGLPPIRSKTLSVCSTTLWVGQVDKKATQQDLTNLFEEFGQIESINMIPPRGCAYVCMVHRQDAFRALQKLSSGSYKIGSKVIKIAWALNKGVKTEYKQFWDVDLGVTYIPWEKVKVDDLEGFAEGGMIDQETVNTEWETVKSSEPVKETVQTTQSPTPVEKETVVTTQAEVFPPPVAMLQIPVAPAVPTVSLVPPAFPVSMPVPPPGFSPIPPPPFLRASFNPSQPPPGFMPPPVPPPVVPPPTIPPVVPTSLVQPSLSMTPETVKDVGFGSLVIPGGSVASNLATSALPAGNVFNAPTKQAEPEEKVPHLIDHQISSGENTRSVIPNDISSNAAILGGQPPNVTSNSGILGVQRPNVSSNSEILGVRPSNVSSSSGIIAAQPPNILNNSGILGIQPPSVSNSSGLLGVLPPNIPNNSGLVGVQPPNVPNTPGLLGTQPPAGPQNLPPLSIPNQRMPTMPMLDIRPGLIPQAPGPRFPLIQPGIPPQRGIPPPSVLDSALHPPPRGPFPPGDIFSQPERPFLAPGRQSVDNVTNPEKRIPLGNDNIQQEGDRDYRFPPIETRESISRPPPVDVRDVVGRPIDPREGPGRPPLDGRDHFGRPPVDIRENLVRPGIDHLGRRDHFGFNPEKPWGHRGDFDEREHRVLPVYGGPKGLHEERGRFRSGNYRFDPRSGPWNRGFGQEVHRDFDDRRRPWERQRDRDDRDFDFCREMNGNRLGRDRIQNTWVPPPHARVFDYFEGATSQRKGDNVPQVNGENTERHAQPPPIPVQNDPELYEKLTSSNEINKEKSDTVADIESEPVVESTETEGT
partner: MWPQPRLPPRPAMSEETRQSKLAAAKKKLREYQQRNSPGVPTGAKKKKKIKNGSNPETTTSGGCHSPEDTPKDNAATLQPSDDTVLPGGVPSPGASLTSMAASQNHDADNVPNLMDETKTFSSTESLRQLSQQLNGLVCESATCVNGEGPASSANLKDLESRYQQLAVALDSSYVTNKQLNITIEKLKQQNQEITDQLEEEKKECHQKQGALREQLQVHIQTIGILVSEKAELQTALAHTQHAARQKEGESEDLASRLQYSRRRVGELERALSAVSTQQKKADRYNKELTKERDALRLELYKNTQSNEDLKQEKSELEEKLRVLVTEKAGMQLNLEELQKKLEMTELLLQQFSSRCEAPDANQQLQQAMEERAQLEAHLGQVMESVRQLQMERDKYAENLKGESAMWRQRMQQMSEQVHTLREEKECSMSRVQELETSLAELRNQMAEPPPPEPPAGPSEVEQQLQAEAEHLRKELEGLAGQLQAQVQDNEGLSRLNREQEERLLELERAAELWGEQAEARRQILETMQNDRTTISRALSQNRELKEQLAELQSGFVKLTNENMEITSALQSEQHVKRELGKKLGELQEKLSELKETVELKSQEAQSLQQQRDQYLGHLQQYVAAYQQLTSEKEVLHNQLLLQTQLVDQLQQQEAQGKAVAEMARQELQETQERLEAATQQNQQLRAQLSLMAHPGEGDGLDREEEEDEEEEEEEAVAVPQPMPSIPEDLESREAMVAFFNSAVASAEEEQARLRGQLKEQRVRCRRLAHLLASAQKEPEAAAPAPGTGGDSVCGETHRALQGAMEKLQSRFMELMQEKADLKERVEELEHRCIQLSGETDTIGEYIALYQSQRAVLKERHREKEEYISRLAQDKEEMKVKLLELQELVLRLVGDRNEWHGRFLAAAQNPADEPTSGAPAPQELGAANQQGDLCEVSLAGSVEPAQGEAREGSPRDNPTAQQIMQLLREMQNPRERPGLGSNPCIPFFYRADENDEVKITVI
B3: Vesicle transport through interaction with t-SNAREs homolog 1B (Homo sapiens), Q9UEU0 (parent)
chain: MASSAASSEHFEKLHEIFRGLHEDLQGVPERLLGTAGTEEKKKLIRDFDEKQQEANETLAEMEEELRYAPLSFRNPMMSKLRNYRKDLAKLHREVRSTPLTATPGGRGDMKYGIYAVENEHMNRLQSQRAMLLQGTESLNRATQSIERSHRIATETDQIGSEIIEELGEQRDQLERTKSRLVNTSENLSKSRKILRSMSRKVTTNKLLLSIIILLELAILGGLVYYKFFRSH
partner: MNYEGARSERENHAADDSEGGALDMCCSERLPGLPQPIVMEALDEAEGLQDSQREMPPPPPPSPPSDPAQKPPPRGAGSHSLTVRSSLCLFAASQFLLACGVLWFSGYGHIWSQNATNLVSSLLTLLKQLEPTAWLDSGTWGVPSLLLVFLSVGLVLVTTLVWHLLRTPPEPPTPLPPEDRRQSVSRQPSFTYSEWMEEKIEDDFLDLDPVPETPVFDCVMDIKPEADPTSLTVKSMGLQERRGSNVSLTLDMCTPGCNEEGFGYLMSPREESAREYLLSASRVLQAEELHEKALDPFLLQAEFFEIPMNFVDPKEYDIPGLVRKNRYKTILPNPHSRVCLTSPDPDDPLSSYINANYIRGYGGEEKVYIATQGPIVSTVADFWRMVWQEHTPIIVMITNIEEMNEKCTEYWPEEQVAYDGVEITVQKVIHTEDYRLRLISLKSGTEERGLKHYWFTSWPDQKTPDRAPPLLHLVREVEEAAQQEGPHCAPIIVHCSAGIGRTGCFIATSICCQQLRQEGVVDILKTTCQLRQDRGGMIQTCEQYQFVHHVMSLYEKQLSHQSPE
B4: Centrosomal protein POC5 (Homo sapiens), Q8NA72 (parent)
chain: MSSDEEKYSLPVVQNDSSRGSSVSSNLQEEYEELLHYAIVTPNIEPCASQSSHPKGELVPDVRISTIHDILHSQGNNSEVRETAIEVGKGCDFHISSHSKTDESSPVLSPRKPSHPVMDFFSSHLLADSSSPATNSSHTDAHEILVSDFLVSDENLQKMENVLDLWSSGLKTNIISELSKWRLNFIDWHRMEMRKEKEKHAAHLKQLCNQINELKELQKTFEISIGRKDEVISSLSHAIGKQKEKIELMRTFFHWRIGHVRARQDVYEGKLADQYYQRTLLKKVWKVWRSVVQKQWKDVVERACQARAEEVCIQISNDYEAKVAMLSGALENAKAEIQRMQHEKEHFEDSMKKAFMRGVCALNLEAMTIFQNRNDAGIDSTNNKKEEYGPGVQGKEHSAHLDPSAPPMPLPVTSPLLPSPPAAVGGASATAVPSAASMTSTRAASASSVHVPVSALGAGSAATAASEEMYVPRVVTSAQQKAGRTITARITGRCDFASKNRISSSLAIMGVSPPMSSVVVEKHHPVTVQTIPQATAAKYPRTIHPESSTSASRSLGTRSAHTQSLTSVHSIKVVD
partner: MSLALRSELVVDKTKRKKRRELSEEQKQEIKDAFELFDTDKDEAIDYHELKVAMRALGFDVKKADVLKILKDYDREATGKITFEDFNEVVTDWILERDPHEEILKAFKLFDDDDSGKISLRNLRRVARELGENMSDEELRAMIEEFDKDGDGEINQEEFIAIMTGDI
B5: Zinc finger and SCAN domain-containing protein 9 (Homo sapiens), O15535 (parent)
chain: MNTNSKEVLSLGVQVPEAWEELLTMKVEAKSHLQWQESRLKRSNPLAREIFRRHFRQLCYQETPGPREALTRLQELCYQWLRPHVSTKEQILDLLVLEQFLSILPKELQGWVREHCPESGEEAVILLEDLERELDEPQHEMVAHRHRQEVLCKEMVPLAEQTPLTLQSQPKEPQLTCDSAQKCHSIGETDEVTKTEDRELVLRKDCPKIVEPHGKMFNEQTWEVSQQDPSHGEVGEHKDRIERQWGNLLGEGQHKCDECGKSFTQSSGLIRHQRIHTGERPYECNECGKAFSRSSGLFNHRGIHNIQKRYHCKECGKVFSQSAGLIQHQRIHKGEKPYQCSQCSKSYSRRSFLIEHQRSHTGERPHQCIECGKSFNRHCNLIRHQKIHTVAELV
B6: Ribose-phosphate pyrophosphokinase 1 (Homo sapiens), P60891 (parent)
chain: MPNIKIFSGSSHQDLSQKIADRLGLELGKVVTKKFSNQETCVEIGESVRGEDVYIVQSGCGEINDNLMELLIMINACKIASASRVTAVIPCFPYARQDKKDKSRAPISAKLVANMLSVAGADHIITMDLHASQIQGFFDIPVDNLYAEPAVLKWIRENISEWRNCTIVSPDAGGAKRVTSIADRLNVDFALIHKERKKANEVDRMVLVGDVKDRVAILVDDMADTCGTICHAADKLLSAGATRVYAILTHGIFSGPAISRINNACFEAVVVTNTIPQEDKMKHCSKIQVIDISMILAEAIRRTHNGESVSYLFSHVPL

Variants of: B1
Conditions: with magab_human MAGEA11, P43364

| Variant | effect of a mutation on the interaction |
| --- | --- |
| R377Q | with no effect |

Variants of: B2
Conditions: with goga2_human GOLGA2, Q08379

| Variant | effect of a mutation on the interaction |
| --- | --- |
| M1173V | with no effect |

Variants of: B3
Conditions: with ptn5_human PTPN5, P54829

| Variant | effect of a mutation on the interaction |
| --- | --- |
| R124Q | with no effect |
| R176H | with no effect |

Variants of: B4
Conditions: with cetn3_human CETN3, O15182

| Variant | effect of a mutation on the interaction |
| --- | --- |
| H36R | with no effect |

Variants of: B5
Conditions: with zn446_human ZNF446, Q9NWS9
Sequence of zn446_human ZNF446, Q9NWS9 (Q9NWS9 whole entry): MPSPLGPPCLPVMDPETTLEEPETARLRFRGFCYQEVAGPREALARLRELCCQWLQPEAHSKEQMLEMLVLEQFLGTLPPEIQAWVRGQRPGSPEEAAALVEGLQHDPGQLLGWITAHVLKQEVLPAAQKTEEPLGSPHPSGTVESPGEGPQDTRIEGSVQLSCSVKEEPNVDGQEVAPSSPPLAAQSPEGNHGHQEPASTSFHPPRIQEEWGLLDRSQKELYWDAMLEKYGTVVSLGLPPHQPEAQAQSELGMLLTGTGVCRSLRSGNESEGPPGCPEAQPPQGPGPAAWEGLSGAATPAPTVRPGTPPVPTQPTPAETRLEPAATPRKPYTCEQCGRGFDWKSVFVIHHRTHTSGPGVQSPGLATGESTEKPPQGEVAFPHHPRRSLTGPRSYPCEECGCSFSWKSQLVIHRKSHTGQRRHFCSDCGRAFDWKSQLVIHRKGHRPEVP

| Variant | effect of a mutation on the interaction |
| --- | --- |
| Q34R | with no effect |

Variants of: B6
Conditions: with gors2_human GORASP2, Q9H8Y8

| Variant | effect of a mutation on the interaction |
| --- | --- |
| E43D | with no effect |
| D183H | with no effect |

Variants of: B6
Conditions: with prps2_human PRPS2, P11908

| Variant | effect of a mutation on the interaction |
| --- | --- |
| E43D | disrupting interaction strength |
| D183H | disrupting interaction strength |

Variants of: B6
Conditions: with gors2_human GORASP2, Q9H8Y8
Remark: another data set of the same source

| Variant | effect of a mutation on the interaction |
| --- | --- |
| D203H | with no effect |

Variants of: B6
Conditions: with prps2_human PRPS2, P11908
Remark: another data set of the same source

| Variant | effect of a mutation on the interaction |
| --- | --- |
| D203H | disrupting interaction strength |
